These results are taken from the supplement of paper PMC9942255.

Where “and” joins values, the source holds several entries; their conditions need not be identical. Equal values may be shown once.

The series has as its system Bacillus subtilis DB104 (SP-AmyQ fusion secretion). Nature of the series: AmyQ secretion efficiency, weighted average sort bin (1 = best secretion, 10 = worst) (bin number (weighted average, 1-10)); higher = lower secretion efficiency. The method, boiled down:
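B. subtilis DB104 library expressing mature AmyQ fused to designed signal peptides (amyE-integrated) was encapsulated at about 0.3 cells per ~65 nL alginate bead with fluorescein-starch, grown about 13 h at room temperature and nile red stained. Occupied beads were sorted by large-particle flow cytometry into 10 equally populated bins by green/red fluorescence ratio, and each bin's amplicons were Illumina-sequenced. Secretion score is the read-frequency-weighted average bin number, normalised to beads per bin, excluding low-abundance sequences.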

MKKVLMAFIICLSLILSVLAAPPSGVKAESV had an AmyQ secretion efficiency of 1.85.

MPYLKRVLLLLVTGLFMSLFAVTATMSAQTG returned an AmyQ secretion efficiency of 1.29.

In the case of MKWMCSICCAAVLLAGGAAQLEAV, the AmyQ secretion efficiency worked out at 3.67.

For MRNLTKTSLLLAGLCTAAQMVFVTHHSAEES, the AmyQ secretion efficiency was found to be 4.26.

MKNMSCKLVVSVTLFFSFLTIGPLAHEQNS registered an AmyQ secretion efficiency of 5.71.

MGGMSCSILVVSVTLFFSFLTIGPLAHAQNS registered an AmyQ secretion efficiency of 2.24.

For the sequence MPYLKRGGLLLVTGLFMSLFAVTATASAQTG, the AmyQ secretion efficiency is 1.51.

MRKNRIKRKKVLSLGLLSFMVTPVSAASK: the AmyQ secretion efficiency is 7.91.

As to MRSYIKVKKMCFLGLILFVPTALADNS, the AmyQ secretion efficiency worked out at 3.9.

Turning to MKKWLIIAVSLAIAIVLFMYTKGEPKAAGM, the AmyQ secretion efficiency was determined as 5.65.

Regarding MRSYIKVLTMCFLGLILFVFTALADNS, the AmyQ secretion efficiency was 7.29.

In the case of MLKRTSFVSSLFISSAVLLLPSGQAHAQSA, the AmyQ secretion efficiency was found to be 1.64.

For MLCVMMLLFSAIASFPVSFQAKDQ, the AmyQ secretion efficiency was found to be 8.56.

As to MKKKQVMLALTAAAGLGLTALHSAPARKAAPL, the AmyQ secretion efficiency stood at 5.26.

In turn, MRNLTKTKRRKAGLCTAAQMVFVTHASAEES came in with an AmyQ secretion efficiency of 6.94.

MGLGKKLSVAVAASFMSLSISLSPGVQAAEG gave an AmyQ secretion efficiency of 1.19.

MKRITINSNFSNIITMFIAAAVISLTGTAEAAEK had an AmyQ secretion efficiency of 3.07.

The sequence MLTKRTTTSLLTIYIMLLGLIAWFPGAAQAEEK yielded an AmyQ secretion efficiency of 3.1.

As for MKKWIYVVLVLSIAGIGGFSVHWASS, the AmyQ secretion efficiency amounted to 7.53.

For the sequence MRMLWRSLALCGLALTLAPCAQIAEP, the AmyQ secretion efficiency was 6.42.

On to MRKKRVITCVMAASLTLGSLLPAGYATAKKR, for which the AmyQ secretion efficiency worked out at 2.88.

Sequence MMSLLSTLLIGIMLLTFAPSAFAKQD showed an AmyQ secretion efficiency of 1.88.

Take MTKRGIQAFAGGIILATYLTDEDQAAAV: the AmyQ secretion efficiency is 7.21.

Sequence MKKRLIGFLVLVPALIKSGITLIEANKK showed an AmyQ secretion efficiency of 6.34.

On to MKKKLAAGLTASAIVGTTLVVTPEEAATI, for which the AmyQ secretion efficiency was determined as 5.83.

Take MPYLKRVLLLLVTGLFMSLFAVTATASMQTG: the AmyQ secretion efficiency stood at 1.29.

Turning to MKRLLVSLRVWMVFLMNWVTPDRKTSAAAVY, the AmyQ secretion efficiency was found to be 5.14.

Consider MKVPKTMLLSTAAGLLLSLTATSISAHYV, for which the AmyQ secretion efficiency worked out at 6.77.

MKKRLIAPMLLSAASLAFFAMSGSVQAAAY came in with an AmyQ secretion efficiency of 4.49.

MKLAKRVSALTPSTTLAIISTGSAKAKEL showed an AmyQ secretion efficiency of 7.54.

In turn, MKKIVSILFMFGLVMSIISLGFSQFQPSTVFAADK registered an AmyQ secretion efficiency of 2.96.

MKKRLIAPMLLSAASLAFFAMSGSAQGAAY returned an AmyQ secretion efficiency of 4.34.

In the case of MKWMCKKCCAAVLLAGGAAQAEAV, the AmyQ secretion efficiency was determined as 5.26.

For the sequence MKKIVIILFMFILVMSSGFSQFQPSTVFAADK, the AmyQ secretion efficiency was determined as 3.08.

Sequence MTKKAWFLPLVCVLLISGWLAPAASISAQTT displayed an AmyQ secretion efficiency of 2.33.

Sequence MKKGIIRFLLVSFVLFFALSTGITGVQFAPA gave an AmyQ secretion efficiency of 7.18.

The sequence MKQFAITLSVLCALILLVPTLLVIPFQHNKEAMASV yielded an AmyQ secretion efficiency of 6.87.

Consider MKLAKRGKSYYPYTSLAITAKAKEL, for which the AmyQ secretion efficiency was found to be 8.51.

Turning to MMKKLAAGLTASAIVGTTLVVTPAEAATI, the AmyQ secretion efficiency is 2.13.

MKKLLAAGIIGLLTVSIASPSFWAEK yielded an AmyQ secretion efficiency of 7.9.

In turn, MKNMSCKLRKKKTLFFSFLTIGPLAHAQNS displayed an AmyQ secretion efficiency of 6.98.

Sequence MKKKLAAGLTASAIVGTTLVVTPAEAADE came in with an AmyQ secretion efficiency of 3.03.

In the case of MKKWMITIAMLILAGIALFVFIRKKRRLKSHKT, the AmyQ secretion efficiency is 6.07.

On to MAIIIAIIAAVIVIAALITFKKRRKRNASPG, for which the AmyQ secretion efficiency is 8.46.

MSFVMNIIIALVTILMLSVTSLFALQPSAKAAEH showed an AmyQ secretion efficiency of 2.71.

Consider MKRIRILALGAALTIAPLSFASAEEN, for which the AmyQ secretion efficiency is 3.38.

Turning to MLKKIALTLCPAIVGSLLFFTVAPASAHVS, the AmyQ secretion efficiency was determined as 3.73.

As to MKKWIYVVLVLSIAGIGGFSMHAASS, the AmyQ secretion efficiency worked out at 5.22.

On to MKWMCSICCAAVLLAGGAPTFAQAEAV, for which the AmyQ secretion efficiency is 3.68.

The sequence MPSCKQLIVCSLAAILLLIPSVSFAADS gave an AmyQ secretion efficiency of 3.5.

For the sequence MLCVMMLLFSAIASTPVSAQAKDQ, the AmyQ secretion efficiency is 5.3.

In turn, MKKVLMAFIICLSLILSVLAAPPSGAKAASV gave an AmyQ secretion efficiency of 1.88.

MKKLLAAGIIGLLTVSIASPSFTAEK displayed an AmyQ secretion efficiency of 6.63.

MGLGKKLSVAVAASFMSLSISLPGVQQAEG: the AmyQ secretion efficiency was 3.24.

Consider MKRKKCSICCAAVLLAGGAAQAEAV, for which the AmyQ secretion efficiency was 6.17.

Sequence MIVIRKRKISIIVFLSVIQPQPS showed an AmyQ secretion efficiency of 5.82.

MTKKAWFLPLVCVLLISGWLAPAASSSAQTT displayed an AmyQ secretion efficiency of 3.

Turning to MKKKRLAAGLTASAIVGTTLVVTPAEAATI, the AmyQ secretion efficiency was 4.26 and 3.28.

Consider MKKSQYFIVFICFFVLFSRRKHKRRAAAADS, for which the AmyQ secretion efficiency is 7.81.

Take MKSKGSIMACRRKRRRTITTFINTETISAFSN: the AmyQ secretion efficiency is 6.8.

In turn, MFKKHTISLLIIFLLASAVLAKPIEAHDD gave an AmyQ secretion efficiency of 3.1.

Regarding MKRLKKTLLIGIMLLTFAPSAFAKQD, the AmyQ secretion efficiency was 1.92.

In turn, MMMLRKIIGWILLLCIIPLFAFTVIASGKEV returned an AmyQ secretion efficiency of 5.45.

In turn, MLCVMMLLFSAIAEEEDEEAQAKDQ yielded an AmyQ secretion efficiency of 7.25.

Regarding MFNRLFRVCFLAALIMAFTLPNSSYAQKP, the AmyQ secretion efficiency came out at 2.08.

As for MRPVFPLILSAVLFLSCFFGARQTEASASED, the AmyQ secretion efficiency is 3.13.

With MMIKQNMSSCVICLSLLVFGTTAAHAEET, the AmyQ secretion efficiency was 2.9.

Turning to MLCVMMLLFSAIASFPVSTQAKDQ, the AmyQ secretion efficiency worked out at 5.3.

MKKLLAAGIIGLLTVSIASPSFYAEK displayed an AmyQ secretion efficiency of 7.71.

Regarding MAIIIAIIAAVIVIAALITFNVRNDSPG, the AmyQ secretion efficiency amounted to 6.52.

Turning to MTMLRKIIGWILLLCIIPLFAFTVIESGKEV, the AmyQ secretion efficiency was 6.44.

As to MKRLFMKGSLVLFAVVFVFAVKGAPAKAETH, the AmyQ secretion efficiency was found to be 3.72.

MKKKLAAGLTASAIVGTTLVVTPTAAEAATI yielded an AmyQ secretion efficiency of 2.99.

MSKWMITIAMLILAGIALFVFISPLKSHKT came in with an AmyQ secretion efficiency of 5.71.

Regarding MLCVMMLLFSAIASFPVSAQHKDQ, the AmyQ secretion efficiency amounted to 5.96.

The sequence MKKQWIGMLAAAVLLLMVPKVSLADAA yielded an AmyQ secretion efficiency of 2.86.

In the case of MRPQFPLILSAVLFLSCFFGARQTEASASKR, the AmyQ secretion efficiency amounted to 4.77.

The sequence MNKLKRLSMLTVMIASVFIFSSHALAARR registered an AmyQ secretion efficiency of 2.05.

MKKRLIGFLVLVPALIMSGITLMEANKK yielded an AmyQ secretion efficiency of 7.17.

Sequence MKRKLKKSLAISALSLGLLVSAPTASFAAES showed an AmyQ secretion efficiency of 3.49.

MKRLLSTLLIGIMLLTFAPSAFWKQD returned an AmyQ secretion efficiency of 6.93.

Take MKKRKRRNFKRFIAAFLVLALMISLVPADVLAEED: the AmyQ secretion efficiency was 3.75.

As for MKKWMAGLFLAAAVLLCLMVPQQGQGASS, the AmyQ secretion efficiency is 6.52.

MKVPKTMLLSTAAGLLLSLTATSVSAKRK came in with an AmyQ secretion efficiency of 5.92.

For MKLSVKIAGVLTVAAAAMTAKMYATGKGN, the AmyQ secretion efficiency was found to be 6.84.

MNMSITYSLLALLAVVAFAFTDSSKAKAAEA displayed an AmyQ secretion efficiency of 2.51.

On to MMKKLFHSTLIVLLFFSFFGVQPVASSASTIHAKKQ, for which the AmyQ secretion efficiency was found to be 2.41.

Consider MKRFSTAYLLLGILCSAAVFLIGAPSRALAAEV, for which the AmyQ secretion efficiency stood at 2.35.

The sequence MFKKHTISLLIIFLLAATFFSFTSLISAVLAKPIEAHTV showed an AmyQ secretion efficiency of 4.38.

For the sequence MTMLRKIIGWILLLCIIPLFAFTVIHSGKEV, the AmyQ secretion efficiency was determined as 6.94.

As for MKKRLIGFLVLVPALIMSGITLQEANKK, the AmyQ secretion efficiency was 7.31.

MRFTKVVGFLSVLGLAAEDEEEEAQAEKA came in with an AmyQ secretion efficiency of 7.84.

MTKAFLVFLSVVLVTTVFLVKQQESVAQAKQL showed an AmyQ secretion efficiency of 5.72.

MRMLWRSLALCGLALTLAPCWQAAEP displayed an AmyQ secretion efficiency of 5.47.

In turn, MFKFKKNFRKKRSAALMSISLFSATASAAST gave an AmyQ secretion efficiency of 4.73.

MKKCLLFLTTIALILRKRRKKAFAKNT showed an AmyQ secretion efficiency of 7.29.

MISKKLWISLLFALTLIFTMAFSNMSAQAAGK had an AmyQ secretion efficiency of 1.95.

In turn, MNKPTKLFSTLALAAGMTKRRAGGAGTIHAQQP displayed an AmyQ secretion efficiency of 5.85.

Sequence MKRIRIPMTLALGAALTIAPLDEDASAEEN returned an AmyQ secretion efficiency of 3.3.

Take MNFKKTVVSALSISALALSVSGVASARRK: the AmyQ secretion efficiency was found to be 6.94.

Take MKLAKRVSALTPSTTLAITAKEKEL: the AmyQ secretion efficiency worked out at 7.18.

MRMLWRSKRRCKLALTLAPCAQAAEP registered an AmyQ secretion efficiency of 7.06.

Regarding MKLRKVRKGSVLSLGLLVSASPAFATSP, the AmyQ secretion efficiency came out at 4.34.

As to MNFKKTVVSALSISALALTVTSISVSGVASAHEI, the AmyQ secretion efficiency is 3.48.

As for MGLGKKLSVAVAASFMSLSISLPGSQAAEG, the AmyQ secretion efficiency came to 2.3.

For the sequence MKMKSGMEQAVSVLLLLSRLPVQASLTSD, the AmyQ secretion efficiency worked out at 6.62.

In turn, MLKKKWMVGLLAGCLAAGEDDEEDAFATEN returned an AmyQ secretion efficiency of 5.44.

MIAYFGKCGYKYGRTRLGVLFGMQQANHG: the AmyQ secretion efficiency turned out to be 8.61.

Turning to MRPVFPLRRRRRRFLSCFFGARQTEASASKR, the AmyQ secretion efficiency is 7.47.
